The values below come from patent US20230407373A1 (priority 2020, published 2023).

Type in all cases: binding
The subject of one assay is SARS-CoV-2 gRNA. To be noted: for target (unweighted spectral count of the protein in the RNP capture): LC-MS/MS, Probe I sample (first 199 lines of Table 2); for target (unweighted spectral count in RNP capture): Probe I capture, LC-MS/MS LFQ; for background (unweighted spectral count in control): no-probe control pull-down, used as background for Probe I.
The next assay deals with HCoV-OC43 gRNA and sgRNA. The note with it: for target (unweighted spectral count, OC43 Probe II capture) / target (unweighted spectral count): tested against no-probe control; for target (unweighted spectral count, OC43 Probe II capture): FDR<10%; for target (spectral count) / background (spectral count): type s_36_m, Probe II; for target (spectral count): HCoV-OC43-infected HCT-8 cells; for background (spectral count): uninfected-probe control; for target (unweighted spectral count, OC43 Probe II) / background (unweighted spectral count, no-probe control): type n_48_v, 48 hpi; for target (unweighted spectral count, OC43 Probe II): OC43 Probe II capture on infected cells; for background (unweighted spectral count, no-probe control): no-probe control on infected cells; for target (unweighted spectral count): OC43 Probe II, infected cells.

For the next assay, the system named is gRNA of HCoV-OC43. To be noted: for target (spectral count) / background (spectral count): type g_36_m, 36 hpi, Probe I; for target (spectral count): HCoV-OC43-infected HCT-8 cells; for background (spectral count): uninfected-probe control; for target (spectral count, OC43 Probe I RNP capture) / background (spectral count, no-probe control): type n_48_v: 48 hours post-infection; for target (spectral count, OC43 Probe I RNP capture): infected cells, unweighted spectral count; for background (spectral count, no-probe control): no-probe control on infected cells.

Read-outs that look alike come from different tables or passages of the source.

B1: GRSF1 (protein, UniProt Q12849 118-480, looked up)
G-rich sequence factor 1: SQESKTTYLEDLPPPPEYELAPSKLEEEVDDVFLIRAQGLPWSCTMEDVLNFFSDCRIRNGENGIHFLLNRDGKRRGDALIEMESEQDVQKALEKHRMYMGQRYVEVYEINNEDVDALMKSLQVKSSPVVNDGVVRLRGLPYSCNEKDIVDFFAGLNIVDITFVMDYRGRRKTGEAYVQFEEPEMANQALLKHREEIGNRYIEIFPSRRNEVRTHVGSYKGKKIASFPTAKYITEPEMVFEEHEVNEDIQPMTAFESEKEIELPKEVPEKLPEAADFGTTSSLHFVHMRGLPFQANAQDIINFFAPLKPVRITMEYSSSGKATGEADVHFETHEDAVAAMLKDRSHVHHRYIELFLNSCPKGK
Regarding B1, the “target (unweighted spectral count of the protein in the RNP capture)” value with SARS-CoV-2 gRNA came to 14. The “target (unweighted spectral count, OC43 Probe II capture)” value in the assay with HCoV-OC43 gRNA and sgRNA (24 hpi, type n_24_v) was determined as 4.

B2: FBL: host protein, UniProt P22087 (protein, UniProt P22087 1-321, looked up)
rRNA 2'-O-methyltransferase …: MKPGFSPRGGGFGGRGGFGDRGGRGGRGGFGGGRGRGGGFRGRGRGGGGGGGGGGGGGRGGGGFHSGGNRGRGRGGKRGNQSGKNVMVEPHRHEGVFICRGKEDALVTKNLVPGESVYGEKRVSISEGDDKIEYRAWNPFRSKLAAAILGGVDQIHIKPGAKVLYLGAASGTTVSHVSDIVGPDGLVYAVEFSHRSGRDLINLAKKRTNIIPVIEDARHPHKYRMLIAMVDVIFADVAQPDQTRIVALNAHTFLRNGGHFVISIKANCIDSTASAEAVFASEVKKMQQENMKPQEQLTLEPYERDHAVVVGVYRPPPKVKN
With B2, the “target (unweighted spectral count of the protein in the RNP capture)” value with SARS-CoV-2 gRNA was 5. Besides, in the assay with gRNA of HCoV-OC43, the “target (spectral count)” value is 10; the “background (spectral count)” value is on record as 1; the “target (spectral count, OC43 Probe I RNP capture)” value is 9; the “background (spectral count, no-probe control)” value was found to be 2. Further, the “target (unweighted spectral count, OC43 Probe II capture)” value in the assay with HCoV-OC43 gRNA and sgRNA (24 hpi, type n_24_v) turned out to be 4. In the assay with HCoV-OC43 gRNA and sgRNA (36 hpi, type n_36_v), the “target (unweighted spectral count, OC43 Probe II capture)” value is reported as 11. In the assay on HCoV-OC43 gRNA and sgRNA (36 hpi), the “target (spectral count)” value is on record as 11 and the “background (spectral count)” value was found to be 1.

B3: SRSF5: host protein, UniProt Q13243 (protein, UniProt Q13243 1-272, looked up)
Serine/arginine-rich splicing …: MSGCRVFIGRLNPAAREKDVERFFKGYGRIRDIDLKRGFGFVEFEDPRDADDAVYELDGKELCSERVTIEHARARSRGGRGRGRYSDRFSSRRPRNDRRNAPPVRTENRLIVENLSSRVSWQDLKDFMRQAGEVTFADAHRPKLNEGVVEFASYGDLKNAIEKLSGKEINGRKIKLIEGSKRHSRSRSRSRSRTRSSSRSRSRSRSRSRKSYSRSRSRSRSRSRSKSRSVSRSPVPEKSQKRGSSSRSKSPASVDRQRSRSRSRSRSVDSGN
As for B3, in the assay with SARS-CoV-2 gRNA, the “target (unweighted spectral count in RNP capture)” value worked out at 5 and the “background (unweighted spectral count in control)” value was found to be 1. For the same molecule, in the assay with gRNA of HCoV-OC43, the “target (spectral count)” value is recorded as 8 and the “background (spectral count)” value stood at 1. Further, the “target (unweighted spectral count, OC43 Probe II capture)” value with HCoV-OC43 gRNA and sgRNA (24 hpi, type n_24_v) is 4. For the same molecule, the “target (unweighted spectral count, OC43 Probe II capture)” value in the assay on HCoV-OC43 gRNA and sgRNA (36 hpi, type n_36_v) is 10. Besides, in the assay with HCoV-OC43 gRNA and sgRNA, the “target (unweighted spectral count, OC43 Probe II)” value is reported as 12 and the “background (unweighted spectral count, no-probe control)” value is given as 2.

B4: HNRNPUL1: host protein, UniProt Q9BU32 (protein, UniProt Q9BUJ2 1-856, looked up)
Heterogeneous nuclear …: MDVRRLKVNELREELQRRGLDTRGLKAELAERLQAALEAEEPDDERELDADDEPGRPGHINEEVETEGGSELEGTAQPPPPGLQPHAEPGGYSGPDGHYAMDNITRQNQFYDTQVIKQENESGYERRPLEMEQQQAYRPEMKTEMKQGAPTSFLPPEASQLKPDRQQFQSRKRPYEENRGRGYFEHREDRRGRSPQPPAEEDEDDFDDTLVAIDTYNCDLHFKVARDRSSGYPLTIEGFAYLWSGARASYGVRRGRVCFEMKINEEISVKHLPSTEPDPHVVRIGWSLDSCSTQLGEEPFSYGYGGTGKKSTNSRFENYGDKFAENDVIGCFADFECGNDVELSFTKNGKWMGIAFRIQKEALGGQALYPHVLVKNCAVEFNFGQRAEPYCSVLPGFTFIQHLPLSERIRGTVGPKSKAECEILMMVGLPAAGKTTWAIKHAASNPSKKYNILGTNAIMDKMRVMGLRRQRNYAGRWDVLIQQATQCLNRLIQIAARKKRNYILDQTNVYGSAQRRKMRPFEGFQRKAIVICPTDEDLKDRTIKRTDEEGKDVPDHAVLEMKANFTLPDVGDFLDEVLFIELQREEADKLVRQYNEEGRKAGPPPEKRFDNRGGGGFRGRGGGGGFQRYENRGPPGGNRGGFQNRGGGSGGGGNYRGGFNRSGGGGYSQNRWGNNNRDNNNSNNRGSYNRAPQQQPPPQQPPPPQPPPQQPPPPPSYSPARNPPGASTYNKNSNIPGSSANTSTPTVSSYSPPQPSYSQPPYNQGGYSQGYTAPPPPPPPPPAYNYGSYGGYNPAPYTPPPPPTAQTYPQPSYNQYQQYAQQWNQYYQNQGQWPPYYGNYDYGSYSGNTQGGTSTQ
B4: in the assay on SARS-CoV-2 gRNA, the “target (unweighted spectral count in RNP capture)” value was 5 and the “background (unweighted spectral count in control)” value was 1. Moreover, in the assay on gRNA of HCoV-OC43, the “target (spectral count)” value came out at 13; the “background (spectral count)” value turned out to be 2; the “target (spectral count, OC43 Probe I RNP capture)” value amounted to 11; the “background (spectral count, no-probe control)” value came to 1. Also, the “target (unweighted spectral count)” value in the assay on HCoV-OC43 gRNA and sgRNA (12 hpi (type n_12_v)) worked out at 4. Moreover, the “target (unweighted spectral count)” value in the assay with HCoV-OC43 gRNA and sgRNA (24 hpi (type n_24_v)) is given as 8. Besides, in the assay on HCoV-OC43 gRNA and sgRNA, the “target (unweighted spectral count, OC43 Probe II)” value was determined as 11 and the “background (unweighted spectral count, no-probe control)” value worked out at 1.

B5: POLDIP3: host protein, UniProt Q9BY77 (protein, UniProt Q9BY77 2-421, looked up)
Polymerase delta-interacting …: ADISLDELIRKRGAAAKGRLNARPGVGGVRSRVGIQQGLLSQSTRTATFQQRFDARQKIGLSDARLKLGVKDAREKLLQKDARFRIKGKVQDAREMLNSRKQQTTVPQKPRQVADAREKISLKRSSPAAFINPPIGTVTPALKLTKTIQVPQQKAMAPLHPHPAGMRINVVNNHQAKQNLYDLDEDDDGIASVPTKQMKFAASGGFLHHMAGLSSSKLSMSKALPLTKVVQNDAYTAPALPSSIRTKALTNMSRTLVNKEEPPKELPAAEPVLSPLEGTKMTVNNLHPRVTEEDIVELFCVCGALKRARLVHPGVAEVVFVKKDDAITAYKKYNNRCLDGQPMKCNLHMNGNVITSDQPILLRLSDSPSMKKESELPRRVNSASSSNPPAEVDPDTILKALFKSSGASVTTQPTEFKIKL
Take B5: in the assay on SARS-CoV-2 gRNA, the “target (unweighted spectral count of the protein in the RNP capture)” value is 5. In the assay on gRNA of HCoV-OC43, the “target (spectral count)” value was determined as 7; the “background (spectral count)” value was 1; the “target (spectral count, OC43 Probe I RNP capture)” value is given as 7; the “background (spectral count, no-probe control)” value is recorded as 1.

B6: RBMX (protein, UniProt P38159 1-391, looked up)
RNA-binding motif protein, X …: MVEADRPGKLFIGGLNTETNEKALEAVFGKYGRIVEVLLMKDRETNKSRGFAFVTFESPADAKDAARDMNGKSLDGKAIKVEQATKPSFESGRRGPPPPPRSRGPPRGLRGGRGGSGGTRGPPSRGGHMDDGGYSMNFNMSSSRGPLPVKRGPPPRSGGPPPKRSAPSGPVRSSSGMGGRAPVSRGRDSYGGPPRREPLPSRRDVYLSPRDDGYSTKDSYSSRDYPSSRDTRDYAPPPRDYTYRDYGHSSSRDDYPSRGYSDRDGYGRDRDYSDHPSGGSYRDSYESYGNSRSAPPTRGPPPSYGGSSRYDDYSSSRDGYGGSRDSYSSSRSDLYSSGRDRVGRQERGLPPSMERGYPPPRDSYSSSSRGAPRGGGRGGSRSDRGGGRSRY
As to B6, the “target (unweighted spectral count of the protein in the RNP capture)” value in the assay with SARS-CoV-2 gRNA was found to be 6. Besides, in the assay on gRNA of HCoV-OC43, the “target (spectral count, OC43 Probe I RNP capture)” value was determined as 17 and the “background (spectral count, no-probe control)” value is listed as 1. For the same molecule, the “target (unweighted spectral count, OC43 Probe II capture)” value with HCoV-OC43 gRNA and sgRNA (36 hpi, type n_36_v) is 12. Moreover, the “target (unweighted spectral count)” value in the assay on HCoV-OC43 gRNA and sgRNA (12 hpi (type n_12_v)) was determined as 4. For the same molecule, in the assay with HCoV-OC43 gRNA and sgRNA (24 hpi (type n_24_v)), the “target (unweighted spectral count)” value stood at 6. Further, in the assay with HCoV-OC43 gRNA and sgRNA, the “target (unweighted spectral count, OC43 Probe II)” value was found to be 20 and the “background (unweighted spectral count, no-probe control)” value is 1.

B7: PUF60: host protein, UniProt Q9UHX1 (protein, UniProt Q9UHX1 1-559, looked up)
Poly(U)-binding-splicing …: MATATIALQVNGQQGGGSEPAAAAAVVAAGDKWKPPQGTDSIKMENGQSTAAKLGLPPLTPEQQEALQKAKKYAMEQSIKSVLVKQTIAHQQQQLTNLQMAAVTMGFGDPLSPLQSMAAQRQRALAIMCRVYVGSIYYELGEDTIRQAFAPFGPIKSIDMSWDSVTMKHKGFAFVEYEVPEAAQLALEQMNSVMLGGRNIKVGRPSNIGQAQPIIDQLAEEARAFNRIYVASVHQDLSDDDIKSVFEAFGKIKSCTLARDPTTGKHKGYGFIEYEKAQSSQDAVSSMNLFDLGGQYLRVGKAVTPPMPLLTPATPGGLPPAAAVAAAAATAKITAQEAVAGAAVLGTLGTPGLVSPALTLAQPLGTLPQAVMAAQAPGVITGVTPARPPIPVTIPSVGVVNPILASPPTLGLLEPKKEKEEEELFPESERPEMLSEQEHMSISGSSARHMVMQKLLRKQESTVMVLRNMVDPKDIDDDLEGEVTEECGKFGAVNRVIIYQEKQGEEEDAEIIVKIFVEFSIASETHKAIQALNGRWFAGRKVVAEVYDQERFDNSDLSA
Take B7: the “target (unweighted spectral count of the protein in the RNP capture)” value with SARS-CoV-2 gRNA amounted to 7. In the assay with gRNA of HCoV-OC43, the “target (spectral count, OC43 Probe I RNP capture)” value amounted to 9 and the “background (spectral count, no-probe control)” value is reported as 1. Further, the “target (unweighted spectral count, OC43 Probe II capture)” value in the assay with HCoV-OC43 gRNA and sgRNA (36 hpi, type n_36_v) is 7. In the assay on HCoV-OC43 gRNA and sgRNA, the “target (unweighted spectral count, OC43 Probe II)” value stood at 7 and the “background (unweighted spectral count, no-probe control)” value came out at 1. Also, in the assay with HCoV-OC43 gRNA and sgRNA (36 hpi), the “target (spectral count)” value was determined as 7 and the “background (spectral count)” value was determined as 1.
